Broadly, the koff is a measure of how fast the partners let go of each other. A word on the kon: it is the rate constant with which the complex forms.

“And” between values parts separate entries of the source, which are not always exact repeats. Identical values can stand only once.

Assay [1] addresses ErGtα-mRuby3 (wildtype European robin cone G protein α-subunit with mRuby3 fused to its C-terminus) (European robin). The assay is described as follows: FRET or BRET; acceptor photobleaching FRET in transiently co-transfected QNR/K2 quail neuroretina cells, fixed 48 h after transfection; donor mClover3, acceptor mRuby3; FRET efficiency in percent. (In general: BRET reads energy transfer from a luciferase to a nearby fluorophore.)

The target in assay [2] is rhodopsin (dark-adapted) (Bos taurus) (UniProt P02699). Description: SPR. The following applies: cited from earlier work.
Chain of UniProt P02699 (P02699 whole entry, the tested form may be a part): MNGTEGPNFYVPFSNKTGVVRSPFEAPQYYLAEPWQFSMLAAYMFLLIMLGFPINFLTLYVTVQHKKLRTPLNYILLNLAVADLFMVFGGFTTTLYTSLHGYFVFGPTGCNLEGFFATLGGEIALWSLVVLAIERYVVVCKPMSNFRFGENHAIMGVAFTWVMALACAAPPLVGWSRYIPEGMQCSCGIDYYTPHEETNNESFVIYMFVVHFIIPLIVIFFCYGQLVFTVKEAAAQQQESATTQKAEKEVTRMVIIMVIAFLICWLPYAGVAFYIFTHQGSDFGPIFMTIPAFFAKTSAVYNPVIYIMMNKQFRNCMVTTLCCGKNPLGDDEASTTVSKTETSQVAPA
In assay [3] the target is myristoylated Gtα/Giα chimera (European robin cone Gtα with residues 220-298 replaced by the corresponding region of bovine Giα1) (European robin | bovine). The assay is described as follows: SPR; Biacore 3000; Gtα/Giα chimera (myristoylated or non-myristoylated) amine-coupled on CM5 chip, ErCry variant injected; 10 mM HEPES/NaOH pH 7.4, 150 mM NaCl, 10 mM MgCl2, 0.005% Tween-20, 3.4 mM EDTA; control surface Ulp1 (activation/deactivation cycle for ErCry1a); global fit to a two-state-reaction model, apparent KD = kd1/ka1. A general note: SPR reads the build-up and loss of mass on a sensor chip optically.

In assay [4] the target is non-myristoylated Gtα/Giα chimera (European robin cone Gtα with residues 220-298 replaced by the corresponding region of bovine Giα1), His6-SUMO tag removed (European robin | bovine). The assay is described as follows: SPR; Biacore 3000; Gtα/Giα chimera (myristoylated or non-myristoylated) amine-coupled on CM5 chip, 500 nM ErCry4a-497 injected; 10 mM HEPES/NaOH pH 7.4, 150 mM NaCl, 10 mM MgCl2, 0.005% Tween-20, 3.4 mM EDTA; fit to a Langmuir binding model, apparent KD.

In assay [5] the target is myristoylated Gtα/Giα chimera (European robin cone Gtα with residues 220-298 replaced by the corresponding region of bovine Giα1) (European robin | bovine). The description is as above.
For assay [6], the target named is non-myristoylated Gtα/Giα chimera (European robin cone Gtα with residues 220-298 replaced by the corresponding region of bovine Giα1), His6-SUMO tag removed (European robin | bovine). The description is as above. This is another data set of the same source.
Assay [7] shares this target. The assay is described as follows: SPR; Biacore 3000; Gtα/Giα chimera (myristoylated or non-myristoylated) amine-coupled on CM5 chip, ErCry variant injected; 10 mM HEPES/NaOH pH 7.4, 150 mM NaCl, 10 mM MgCl2, 0.005% Tween-20, 3.4 mM EDTA; control surface Ulp1 (activation/deactivation cycle for ErCry1a); global fit to a two-state-reaction model, apparent KD = kd1/ka1.
Assay [8] shares this target. Described as above. The source holds these as a separate data set.

On to “mClover3-ErCry4 (ErCry4a with mClover3 fused to its N-terminus) (natural protein)”, for which, in assay [1], the FRET efficiency amounted to 49.7%.

Take transducin (from UniProt P04695): the Kd in assay [2] is 360 nM.

On to “European robin cryptochrome 1b (ErCry1b), apo form without bound FAD (natural protein)”, for which, in assay [3], the Kd was found to be 1530 nM; the ka1 (two-state-reaction model, forward reaction rate) amounted to 21700 M⁻¹ s⁻¹; the kd1 (two-state-reaction model, backward reaction rate) is 0.0332 s⁻¹.

With “C-terminally truncated European robin cryptochrome 4a (ErCry4a-497) (domain or fragment)”, the results for the Kd in assay [4], in assay [5] and in assay [6] were 340 nM, 200 nM and 360 nM, respectively. Besides, the values for the off-rate constant (koff) in assay [4] and in assay [5] were 0.00305 s⁻¹ and 0.000915 s⁻¹, respectively. Moreover, the figures for the kon in assay [4] and in assay [5] were 6510 M⁻¹ s⁻¹ and 5350 M⁻¹ s⁻¹, respectively.

Substance “mClover3-ErCry4, truncated after aa 497 (domain or fragment)” yielded an FRET efficiency in assay [1] of 49.5%.

Regarding “European robin cryptochrome 1a (ErCry1a), apo form without bound FAD (natural protein)”, in assay [3], the Kd turned out to be 400 nM; the ka1 (two-state-reaction model, forward reaction rate) came out at 130000 M⁻¹ s⁻¹; the kd1 (two-state-reaction model, backward reaction rate) was 0.0527 s⁻¹.

For “European robin cryptochrome 4a (ErCry4a), purified recombinant, as used in SPR (natural protein)”, the Kd in assay [7] was found to be 35 nM. Besides, in assay [8], the Kd was found to be 32 nM; the ka1 (two-state-reaction model, step A + B to AB) came out at 343000 M⁻¹ s⁻¹; the kd1 (two-state-reaction model, step AB to A + B) worked out at 0.011 s⁻¹. Moreover, in assay [3], the Kd was 200 nM and 290 nM; the ka1 (two-state-reaction model, step A + B to AB) was determined as 3320 M⁻¹ s⁻¹; the kd1 (two-state-reaction model, step AB to A + B) is 0.000674 s⁻¹.

The record behind these values is publication PMC9265643.
